# Patent publication US20230203155A1 (ALMAC DISCOVERY, published 2023)
# B1: P3A1 his myc (VNAR)
# VNAR: TRVDQTPRTATKETGESLTINCVLTDTSYGLYSTSWFRKNPGTTDWERMSIGGRYVESVNKGAKSFSLRIKDLTVADSATYYCKAREARHPWLRQWYDGAGTVLTVNQ
# notes: VNAR; also called P3A1 6xHis myc
# B2: CPF7-[G4S]5-CPF7 his myc (VNAR)
# chain: TRVDQTPRTATKETGESLTINCVVTGAKYGLFATYWYRKNPGSSNQERISISGRYVESVNKRTMSFSLRIKDLTVADSATYYCKAVFMPQHWHPAAHWYDGAGTVLTVNGGGGSGGGGSGGGGSGGGGSGGGGSTRVDQTPRTATKETGESLTINCVVTGAKYGLFATYWYRKNPGSSNQERISISGRYVESVNKRTMSFSLRIKDLTVADSATYYCKAVFMPQHWHPAAHWYDGAGTVLTVNQASGAHHHHHHGAEFEQKLISEEDL
# notes: VNAR homodimer; also called CPF7-CPF7 dimer
# B3: 2V mFc (Fc fusion)
# chain: TRVDQTPRTATKETGESLTINCVLTDTSYGLYSTSWFRKNPGTTDWERMSIGGRYVESVNKGAKSFSLRIKDLTVADSATYYCKAQSLAISTRSYWYDGAGTVLTVNGGGGSGGGGSGGGGSEPRGPTIKPCPPCKCPAPNLLGGPSVFIFPPKIKDVLMISLSPIVTCVVVDVSEDDPDVQISWFVNNVEVHTAQTQTHREDYNSTLRVVSALPIQHQDWMSGKEFKCKVNNKDLPAPIERTISKPKGSVRAPQVYVLPPPEEEMTKKQVTLTCMVTDFMPEDIYVEWTNNGKTELNYKNTEPVLDSDGSYFMYSKLRVEKKNWVERNSYSCSVVHEGLHNHHTTKSFSRTPGK
# notes: control
# B4: BA11-2V HisMyc (VNAR)
# chain: TRVDQSPSSLSASVGDRVTITCVLTDTSYPLYSTYWYRKNPGSSNKEQISISGRYSESVNKGTKSFTLTISSLQPEDSATYYCRAMSTNIWTGDGAGTKVEIKGGGGSGGGGSGGGGSGGGGSGGGGSTRVDQTPRTATKETGESLTINCVLTDTSYGLYSTSWFRKNPGTTDWERMSIGGRYVESVNKGAKSFSLRIKDLTVADSATYYCKAQSLAISTRSYWYDGAGTVLTVNQASGAHHHHHHGAEFEQKLISEEDL
# B5: P3A1-[G4S]5-P3A1 his myc (VNAR)
# chain: TRVDQTPRTATKETGESLTINCVLTDTSYGLYSTSWFRKNPGTTDWERMSIGGRYVESVNKGAKSFSLRIKDLTVADSATYYCKAREARHPWLRQWYDGAGTVLTVNGGGGSGGGGSGGGGSGGGGSGGGGSTRVDQTPRTATKETGESLTINCVLTDTSYGLYSTSWFRKNPGTTDWERMSIGGRYVESVNKGAKSFSLRIKDLTVADSATYYCKAREARHPWLRQWYDGAGTVLTVNQASGAHHHHHHGAEFEQKLISEEDL
# notes: VNAR homodimer by genetic fusion; also called P3A1-P3A1; P3A1 dimer
# B6: Peptide 5 (peptide)
# peptide: RSTIYGSRLRIRNLDTTDTGYFQ
# notes: linear ROR1 ECD peptide
# How the values were obtained:
# [1] = target: T1, recombinant human ROR1 (hROR1), construct not stated (human, UniProt Q01973 30-403, limits assumed); test: SPR, hROR1 on chip
# [2] = target: T2, human ROR1 (FZ domain)-Fc (human); test: direct ELISA on coated Frizzled domain, panel Binding of P3A1 to human ROR1 domains
# T2 construct: also called Fz-Fc; Frizzle domain
# [3] = target: T1, recombinant human ROR1 (hROR1), …; test: SPR, hROR1 on chip with competitor B1 pre-captured
# Protocol: (§1) Competition of binding studies were completed using SPR. […] FC2 was used as the reference channel. […] Binding kinetics were determined using QDat software.
# [4] = target: T3, rat ROR1-Fc fusion protein (rat); test: SPR, rat ROR1 on chip
# T3 construct: Whole entry 'rat ROR1-Fc (CHO)'; also called rROR1
# Protocol: (§2) Binding kinetics were determined using a Pioneer Surface Plasmon Resonance (SPR) instrument (SensiQ/Pall ForteBio). […] VNARs and VNAR-Fc molecules were tested at various concentrations and the Ka (M⁻¹s⁻¹), Kd (s⁻¹) and KD (nM) values were determined using QDat software (SensiQ/Pall ForteBio).
# [5] = target: T4, human ROR1-hFc fusion protein (extracellular domain) (human); test: SPR, ROR1-hFc on chip
# T4 construct: Whole entry 'human ROR1-Fc (CHO)'; also called hROR1; huROR1-Fc
# Protocol: as §2
# Peptide 5 = target: B6; test: direct ELISA on coated peptide 5 [continued]
# Protocol: (§3) In brief, ELISA method as follows. Wells coated with 100 ng antigen and incubated, covered, at room temperature for 2 hr. Plates washed 3×400 ul per well with PBST (PBS+0.05% Tween 20 (v/v)), then blocked with 4% skimmed milk powder (w/v) in PBST for 1 hour at 37° C. Plates washed as before plus additional wash in PBS alone. Binding proteins were diluted in 4% milk PBST and incubated overnight at 4° C. Plates washed 3× with PBST, 3×PBS and binding detected using appropriate secondary detection antibody in 4% milk PBST, room temperature 1 hour. […] Rabbit anti-Mouse IgG H&L, HRP (Abcam #ab97046) [0360] Mouse anti-polyHis, HRP (Sigma #A7058)
# [6] = target: T5, mouse ROR1-Fc fusion protein (mouse); test: SPR, mouse ROR1 on chip
# T5 construct: Whole entry 'mouse ROR1-Fc (CHO)'; also called mROR1
# Protocol: as §2
# [7] = target: T4, human ROR1-hFc fusion protein …; test: SPR, ROR1-hFc on chip; remark: listed apart in the source
# Protocol: as §2
# [8] = target: T6, human ROR2-hFc fusion protein (extracellular domain) (human); test: direct ELISA, panel Binding to human ROR2-Fc
# T6 construct: Whole entry 'human ROR2-Fc (CHO)'; also called hROR2
# Protocol: as §3
# Fz-Kr-Fc = target: T7, Fz-Kr-Fc; test: analytical SEC and SDS-PAGE of fractions
# T7 construct: also called human ROR1 (FZKR domains)-Fc (CHO)
# Protocol: 1:1 VNAR:ROR1 domain or ROR1 domain pairs was incubated on ice for 30 mins then run on a the Superdex 200 increase 10/300 column (GE Healthcare) in PBS and fractions analysed by SDS-PAGE.
# Complex formation was then assessed using analytical SEC.
# Peptide 2 = target: T8, Peptide 2 (human); test: direct ELISA on coated peptide (in PBS), panel P3A1 direct binding ELISA
# T8 construct: linear ROR1 ECD peptide; insoluble in PBS
# T8 peptide: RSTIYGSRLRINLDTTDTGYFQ
# Peptide 3 = target: T9, Peptide 3 (human); test: as above
# T9 construct: linear ROR1 ECD peptide
# T9 peptide: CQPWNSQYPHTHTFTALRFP
# Peptide 4 = target: T10, Peptide 4 (human); test: as above
# T10 construct: linear ROR1 ECD peptide
# T10 peptide: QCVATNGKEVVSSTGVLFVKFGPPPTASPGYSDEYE
# Peptide 1 = target: T11, Peptide 1 (human); test: as above
# T11 construct: linear ROR1 ECD peptide
# T11 peptide: YMESLHMQGEIENQI
# [9] = target: T12, human ROR1 on the surface of ROR1hi human cancer cell lines (human, UniProt Q01973 30-937); test: flow cytometry, A549 (ROR1hi) cells
# T12 construct: whole, on cells; Cell line is named under assay; also called cell surface ROR1
# Protocol: Adherent human cancer cells were detached from tissue culture flasks by incubating with 0.1% EDTA/PBS solution at 37° C. for −10 minutes or until cells detached easily. Cells were re-suspended in 5 ml ice-cold PBS/2% FCS in 15 ml tubes and centrifuged at 1500 rpm for 5 mins at 4° C. Supernatant was removed and the cell pellet re-suspended in 1-2 ml of PBS/2% FCS. A cell count was performed using a Z1 Coulter Particle Counter (Beckman Coulter) and 5×10\hat{ }5 cells were aliquoted per test sample. Cells were incubated with 100 μl of either VNAR (His₆Myc tagged), VNAR-Fc molecules or ROR1 mAb and IgG controls for 1 hour on ice. Excess VNAR, VNAR-Fc or mAb was removed by adding 5 ml of ice-cold PBS/2% FCS, followed by centrifugation at 1500 rpm for 5 mins at 4° C. The supernatant was removed and a second wash performed by re-suspending the cell pellet in 1 ml of ice-cold PBS/2% FCS and adding a further 4 ml of ice-cold PBS/2% FCS. Samples were again centrifuged at 1500 rpm for 5 min at 4° C. Supernatant was removed and excess liquid removed by blotting the tubes on tissue paper. […] Cells were incubated with chosen secondary antibody for 30 min on ice. Cells were washed to remove excess antibody as described earlier. […]
# [10] = target: T4, human ROR1-hFc fusion protein …; test: SPR, ROR1-hFc on chip; remark: listed apart in the source
# Protocol: as §2
# (§4) Using the procedures outlined above the binding of VNAR-Fc fusions to human, mouse and rat ROR1 and human ROR2 were determined by SPR.
# [11] = target: T6, human ROR2-hFc fusion protein …; test: SPR, ROR2-hFc on chip
# Protocol: as §2, §4
# human serum albumin = target: T13, human serum albumin (human, UniProt P02768 25-609); test: ELISA at fixed concentration
# T13 construct: also called HSA
# [12] = target: T1, recombinant human ROR1 (hROR1), …; test: SPR, hROR1 on chip; remark: listed apart in the source
# Protocol: as §1
# [13] = target: T4, human ROR1-hFc fusion protein …; test: SPR, ROR1-hFc on chip; remark: listed apart in the source
# Protocol: as §2
# (§5) The ability of the VNAR-MMAE conjugates and VNAR-fluorescein conjugates to bind to human ROR1 ECD was determined by SPR using the procedures described above.
# [14] = target: T4, human ROR1-hFc fusion protein …; test: Octet or SPR, hROR1
# Protocol: as §2
# Binding kinetics were determined using a SPR (as previously described) or using Biolayer interferometry (K2 Octet instrument/Pall ForteBio). […] VNARs and VNAR-Fc molecules were tested at various concentrations and the Ka (M−1s−1), Kd (s−1) and KD (nM) values were determined using the Octet data analysis HT software (Pall ForteBio).
# [15] = target: T1, recombinant human ROR1 (hROR1), …; test: SPR, hROR1 on chip with competitor P3A1 dimer pre-captured
# Protocol: as §1
# [16] = target: T6, human ROR2-hFc fusion protein …; test: SPR, ROR2-hFc on chip; remark: listed apart in the source
# Protocol: as §2, §5
# [17] = target: T4, human ROR1-hFc fusion protein …; test: SPR, human ROR1 ECD-Fc on chip;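 note: SPR binding kinetics of VNAR and VNAR-Fc molecules run at a range of concentrations over immobilised target, rate and affinity constants fitted with QDat software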
# Protocol: as §2
# Thermal stability assays used Applied Biosystems StepOne Real Time PCR system with the Protein Thermal Shift™ dye kit (Thermo). The assay mix was set up so that the protein was at a final concentration of 20 OA in 20 μL. 5 μL of Thermal Shift™ buffer was added alongside 2.5 uL 8× Thermal Shift™ Dye. Assays were run using the StepOne software and data analysed using Protein Thermal Shift™ software. All data are from first derivative analysis.
# [18] = target: T12, human ROR1 on the surface of ROR1hi …; test: flow cytometry, A549 (ROR1hi) cells, 4°C
# D3 his myc = target: T14, D3 his myc; test: competition ELISA: VNAR pre-incubated with peptide 5, residual binding to coated huROR1-Fc [continued]
# T14 construct: VNAR; made in E. coli and in HEK293 (expression system under assay); also called D3 WT
# Protocol: as §3
# (§6) Competition assays were conducted as described in the methods with all four peptides reconstituted in PBS.
# [19] = target: T15, B1 VNAR with C-terminal His6Myc tag; test: as above
# T15 construct: VNAR, E. coli; also called B1 his myc; B1HisMyc monomer
# Protocol: as §3, §6
# P3A1 his myc = target: B1; test: as above
# Protocol: as §3, §6
# D3-[G4S]5-D3 his myc = target: T16, D3-[G4S]5-D3 his myc; test: as above
# T16 construct: VNAR homodimer by genetic fusion; also called D3-D3; D3 dimer
# Protocol: as §3, §6
# T6 sequence (chain, as listed by the source limits assumed): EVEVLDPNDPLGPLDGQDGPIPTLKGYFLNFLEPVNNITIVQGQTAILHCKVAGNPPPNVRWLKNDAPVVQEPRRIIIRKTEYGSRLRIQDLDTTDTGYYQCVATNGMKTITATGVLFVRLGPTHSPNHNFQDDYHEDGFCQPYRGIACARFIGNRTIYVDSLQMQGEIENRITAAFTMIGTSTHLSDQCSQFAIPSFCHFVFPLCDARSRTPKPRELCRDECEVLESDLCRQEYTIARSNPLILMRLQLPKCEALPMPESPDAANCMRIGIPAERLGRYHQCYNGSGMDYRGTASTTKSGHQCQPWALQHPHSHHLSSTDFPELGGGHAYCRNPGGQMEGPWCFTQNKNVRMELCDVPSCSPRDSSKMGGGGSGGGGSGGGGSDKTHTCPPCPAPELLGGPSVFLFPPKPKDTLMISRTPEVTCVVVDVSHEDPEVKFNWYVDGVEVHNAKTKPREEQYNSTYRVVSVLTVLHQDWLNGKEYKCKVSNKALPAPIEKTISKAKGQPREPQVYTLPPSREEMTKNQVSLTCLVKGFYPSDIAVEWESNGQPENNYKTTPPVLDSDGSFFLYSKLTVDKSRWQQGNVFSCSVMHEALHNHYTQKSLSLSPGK
# T3 sequence (chain, as listed by the source limits assumed): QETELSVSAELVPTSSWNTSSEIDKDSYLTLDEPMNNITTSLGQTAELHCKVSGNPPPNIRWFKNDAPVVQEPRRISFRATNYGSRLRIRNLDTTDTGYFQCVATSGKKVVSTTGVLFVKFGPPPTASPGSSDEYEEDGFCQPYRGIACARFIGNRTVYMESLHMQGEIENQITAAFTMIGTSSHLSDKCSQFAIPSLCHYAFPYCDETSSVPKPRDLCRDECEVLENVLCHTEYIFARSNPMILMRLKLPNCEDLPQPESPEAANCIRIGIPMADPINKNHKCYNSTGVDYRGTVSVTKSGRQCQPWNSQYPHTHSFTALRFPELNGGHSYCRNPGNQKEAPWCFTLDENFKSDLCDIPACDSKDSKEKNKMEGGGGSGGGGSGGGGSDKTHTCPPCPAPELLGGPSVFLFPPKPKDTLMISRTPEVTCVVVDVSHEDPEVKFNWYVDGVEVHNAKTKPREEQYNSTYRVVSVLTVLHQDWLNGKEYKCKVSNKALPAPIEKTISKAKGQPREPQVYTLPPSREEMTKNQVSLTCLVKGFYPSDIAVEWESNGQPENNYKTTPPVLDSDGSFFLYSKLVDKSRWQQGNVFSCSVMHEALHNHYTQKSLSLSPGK
# T4 sequence (chain, as listed by the source limits assumed): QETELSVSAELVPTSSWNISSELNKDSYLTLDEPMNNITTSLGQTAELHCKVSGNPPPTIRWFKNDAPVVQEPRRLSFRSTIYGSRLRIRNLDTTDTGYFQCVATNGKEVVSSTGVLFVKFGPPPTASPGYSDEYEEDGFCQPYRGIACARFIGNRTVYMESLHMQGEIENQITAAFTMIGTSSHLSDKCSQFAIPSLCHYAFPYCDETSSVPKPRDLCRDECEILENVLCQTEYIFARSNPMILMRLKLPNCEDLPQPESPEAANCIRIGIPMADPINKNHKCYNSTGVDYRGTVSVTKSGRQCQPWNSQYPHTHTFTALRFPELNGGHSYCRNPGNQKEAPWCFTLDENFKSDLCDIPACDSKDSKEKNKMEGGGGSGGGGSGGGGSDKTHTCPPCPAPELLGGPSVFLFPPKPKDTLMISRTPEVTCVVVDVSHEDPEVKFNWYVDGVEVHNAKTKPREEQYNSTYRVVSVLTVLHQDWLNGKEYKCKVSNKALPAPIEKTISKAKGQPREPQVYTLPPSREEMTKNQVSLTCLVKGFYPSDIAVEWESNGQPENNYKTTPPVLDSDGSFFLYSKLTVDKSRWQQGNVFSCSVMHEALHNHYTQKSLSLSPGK
# T5 sequence (chain, as listed by the source limits assumed): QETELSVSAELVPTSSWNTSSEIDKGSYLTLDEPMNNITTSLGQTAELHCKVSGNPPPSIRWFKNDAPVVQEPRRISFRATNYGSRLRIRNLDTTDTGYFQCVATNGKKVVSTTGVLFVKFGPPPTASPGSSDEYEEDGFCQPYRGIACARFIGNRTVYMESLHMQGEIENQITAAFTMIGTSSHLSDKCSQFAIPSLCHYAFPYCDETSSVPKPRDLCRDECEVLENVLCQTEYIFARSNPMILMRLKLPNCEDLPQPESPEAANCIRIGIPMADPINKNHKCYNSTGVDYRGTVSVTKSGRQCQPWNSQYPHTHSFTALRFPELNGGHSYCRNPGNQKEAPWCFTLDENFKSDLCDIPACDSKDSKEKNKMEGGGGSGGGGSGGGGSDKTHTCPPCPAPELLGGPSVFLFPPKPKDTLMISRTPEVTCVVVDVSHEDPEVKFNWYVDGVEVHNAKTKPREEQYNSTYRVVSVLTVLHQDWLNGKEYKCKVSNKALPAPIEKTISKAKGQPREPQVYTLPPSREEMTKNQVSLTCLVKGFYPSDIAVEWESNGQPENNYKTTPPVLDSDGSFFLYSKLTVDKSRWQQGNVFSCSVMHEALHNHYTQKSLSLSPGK
# T7 sequence (Fc fusion chain, as listed by the source): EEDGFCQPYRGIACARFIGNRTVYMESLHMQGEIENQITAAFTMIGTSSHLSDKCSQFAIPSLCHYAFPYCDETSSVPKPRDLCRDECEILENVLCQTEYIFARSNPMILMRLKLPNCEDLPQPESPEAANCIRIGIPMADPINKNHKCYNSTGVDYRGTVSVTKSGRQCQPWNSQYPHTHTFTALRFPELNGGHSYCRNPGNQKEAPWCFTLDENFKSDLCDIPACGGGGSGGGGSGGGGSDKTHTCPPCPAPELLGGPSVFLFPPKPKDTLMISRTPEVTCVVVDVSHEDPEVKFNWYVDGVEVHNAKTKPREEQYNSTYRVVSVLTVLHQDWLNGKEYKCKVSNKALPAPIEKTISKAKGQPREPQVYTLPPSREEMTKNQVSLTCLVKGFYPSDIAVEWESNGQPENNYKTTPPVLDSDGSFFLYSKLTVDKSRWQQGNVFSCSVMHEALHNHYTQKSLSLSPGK
# T2 sequence (chain, as listed by the source limits assumed): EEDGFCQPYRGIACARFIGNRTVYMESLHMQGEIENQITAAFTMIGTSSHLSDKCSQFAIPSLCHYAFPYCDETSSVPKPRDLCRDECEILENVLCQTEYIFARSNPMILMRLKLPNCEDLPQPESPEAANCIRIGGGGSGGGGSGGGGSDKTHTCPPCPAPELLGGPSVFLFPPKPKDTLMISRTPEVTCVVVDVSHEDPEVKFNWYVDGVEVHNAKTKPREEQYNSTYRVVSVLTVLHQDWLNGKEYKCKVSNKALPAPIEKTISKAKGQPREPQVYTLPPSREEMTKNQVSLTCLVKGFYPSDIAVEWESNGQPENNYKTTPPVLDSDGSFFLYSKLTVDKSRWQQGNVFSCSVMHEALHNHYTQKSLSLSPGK
binder,measurement,setting,value
B1,Kd,[1],15.9 nM
same,koff,[1],0.0411 s⁻¹
same,kon,[1],2.58e+06 M⁻¹ s⁻¹
same,binding result,[2],binds
same,Kd,[3],16.4 nM
same,koff,[3],0.032 s⁻¹
same,kon,[3],1.94e+06 M⁻¹ s⁻¹
same,Kd,[4],17.7 nM
same,koff,[4],0.045 s⁻¹
same,kon,[4],2.86e+06 M⁻¹ s⁻¹
same,Kd,[5],25.6 nM
same,koff,[5],0.025 s⁻¹
same,kon,[5],980000 M⁻¹ s⁻¹
same,binding result,Peptide 5,no binding
same,Kd,[6],14.3 nM
same,koff,[6],0.0408 s⁻¹
same,kon,[6],2.95e+06 M⁻¹ s⁻¹
same,Kd,[7],19.1 nM
same,koff,[7],0.0442 s⁻¹
same,kon,[7],2.47e+06 M⁻¹ s⁻¹
same,binding result,[8],no binding (tested: 10 ug/ml)
same,binding result,Fz-Kr-Fc,binds
same,binding result,Peptide 2,no binding (tested: 1000 ng/ml)
same,binding result,Peptide 3,no binding (tested: 1000 ng/ml)
same,binding result,Peptide 4,no binding (tested: 1000 ng/ml)
same,binding result,Peptide 1,no binding (tested: 1000 ng/ml)
B2,binding result,[9],binds
B3,binding result,[10],no binding
same,binding result,[11],no binding
B4,binding result,human serum albumin,binds
B5,Kd,[1],0.385 nM
same,koff,[1],0.000628 s⁻¹
same,kon,[1],1.63e+06 M⁻¹ s⁻¹
same,koff,[3],0.000536 s⁻¹
same,kon,[3],1.52e+06 M⁻¹ s⁻¹
same,Kd,[4],0.57 nM
same,koff,[4],0.00173 s⁻¹
same,kon,[4],3.18e+06 M⁻¹ s⁻¹
same,Kd,[12],0.538 nM
same,koff,[12],0.00141 s⁻¹
same,kon,[12],2.62e+06 M⁻¹ s⁻¹
same,Kd,[13],1.61 nM
same,koff,[13],0.00296 s⁻¹
same,kon,[13],1.86e+06 M⁻¹ s⁻¹
same,Kd,[5],0.35 nM
same,koff,[5],0.000637 s⁻¹
same,kon,[5],2.08e+06 M⁻¹ s⁻¹
same,Kd,[6],0.396 nM
same,koff,[6],0.00145 s⁻¹
same,kon,[6],4.17e+06 M⁻¹ s⁻¹
same,Kd,[14],0.3 nM
same,Kd,[15],3.08 nM
same,koff,[15],0.00226 s⁻¹
same,kon,[15],734000 M⁻¹ s⁻¹
same,Kd,[7],0.3 nM
same,koff,[7],0.00112 s⁻¹
same,kon,[7],4.9e+06 M⁻¹ s⁻¹
same,binding result,[16],no binding
same,Kd,[17],0.3 nM
same,koff,[17],0.00117 s⁻¹
same,kon,[17],3.78e+06 M⁻¹ s⁻¹
same,Median YL1-PE,[18],2340
B6,binding result,D3 his myc,no binding (tested: 1000 nM)
same,binding result,[19],no binding (tested: 1000 nM)
same,binding result,P3A1 his myc,no binding (tested: 1000 nM)
same,binding result,D3-[G4S]5-D3 his myc,no binding (tested: 1000 nM)
